How the values were obtained:
Experiment in all cases: IEDB peptide-MHC binding, purified MHC/competitive/radioactivity; filed as Kd, often an IC50 or EC50 that approximates it; ≥ and ≤ were set here for values at or beyond the usual limits of such assays
HLA-A*68:01 = molecular target: HLA-A*68:01
HLA-A*31:01 = molecular target: HLA-A*31:01
HLA-A*03:01 = molecular target: HLA-A*03:01
HLA-A*11:01 = molecular target: HLA-A*11:01
HLA-A*33:01 = molecular target: HLA-A*33:01
[1] = source organism: Dengue virus 1 Brazil/97-11/1997
[2] = source organism: Vaccinia virus WR
[3] = source organism: Dengue virus 2 Jamaica/1409/1983
[4] = source organism: SARS coronavirus Tor2
[5] = source organism: Mammarenavirus lassaense
[6] = source organism: Dengue virus 3 Martinique/1243/1999
[7] = source organism: Mammarenavirus juninense
[8] = source organism: Mammarenavirus machupoense

Sequence: SAAIDGEYR
- Kd (HLA-A*68:01; [1]): 41.6 nM

Sequence: NSINNQLMY
- Kd (HLA-A*31:01; [2]): ≥ 77900 nM
- Kd (HLA-A*03:01; [2]): 4650 nM
- Kd (HLA-A*68:01; [2]): 104 nM
- Kd (HLA-A*11:01; [2]): 132 nM
- Kd (HLA-A*33:01; [2]): ≥ 77700 nM

Sequence: AVQTKPGLFK
- Kd (HLA-A*03:01; [3]): 16.6 nM
- Kd (HLA-A*11:01; [3]): 37.9 nM

Sequence: WIMLLQFAY
- Kd (HLA-A*31:01; [4]): 5330 nM
- Kd (HLA-A*03:01; [4]): 4090 nM
- Kd (HLA-A*68:01; [4]): ≥ 23000 nM
- Kd (HLA-A*11:01; [4]): 14100 nM
- Kd (HLA-A*33:01; [4]): ≥ 77700 nM

Sequence: GVEDTESIER
- Kd (HLA-A*31:01; [2]): 1930 nM
- Kd (HLA-A*03:01; [2]): ≥ 70100 nM
- Kd (HLA-A*68:01; [2]): 1840 nM
- Kd (HLA-A*11:01; [2]): 948 nM
- Kd (HLA-A*33:01; [2]): 673 nM

Sequence: LMSGRGIGK
- Kd (HLA-A*03:01; source organism: Dengue virus 2 Peru/IQT2913/1996): 48 nM

Sequence: FISDNKKEYK
- Kd (HLA-A*31:01; [2]): 118 nM
- Kd (HLA-A*03:01; [2]): 1880 nM
- Kd (HLA-A*68:01; [2]): 11.3 nM
- Kd (HLA-A*11:01; [2]): 47.5 nM
- Kd (HLA-A*33:01; [2]): 1050 nM

Sequence: ISLNSMYTR
- Kd (HLA-A*31:01; [2]): 4.62 nM
- Kd (HLA-A*03:01; [2]): 6100 nM
- Kd (HLA-A*68:01; [2]): 13.3 nM
- Kd (HLA-A*11:01; [2]): 37.4 nM
- Kd (HLA-A*33:01; [2]): 85.6 nM

Sequence: HSYAGDAAEH
- Kd (HLA-A*31:01; [5]): 2960 nM
- Kd (HLA-A*03:01; [5]): 1480 nM
- Kd (HLA-A*68:01; [5]): 578 nM
- Kd (HLA-A*11:01; [5]): 17700 nM
- Kd (HLA-A*33:01; [5]): ≥ 48000 nM

Sequence: EITHHAVSR
- Kd (HLA-A*68:01; [6]): 24.1 nM
- Kd (HLA-A*33:01; [6]): 89.8 nM

Sequence: FLSGKGLGK
- Kd (HLA-A*03:01; [1]): 6.26 nM

Sequence: ISSVQLSNNK
- Kd (HLA-A*31:01; [2]): 4420 nM
- Kd (HLA-A*03:01; [2]): 943 nM
- Kd (HLA-A*68:01; [2]): 1280 nM
- Kd (HLA-A*11:01; [2]): 121 nM
- Kd (HLA-A*33:01; [2]): 3000 nM

Sequence: TVYVYSRVK
- Kd (HLA-A*31:01; [4]): 769 nM
- Kd (HLA-A*03:01; [4]): 67.5 nM
- Kd (HLA-A*68:01; [4]): 919 nM
- Kd (HLA-A*11:01; [4]): 145 nM
- Kd (HLA-A*33:01; [4]): 1070 nM

Sequence: KEFKDFAAGR
- Kd (HLA-A*31:01; [6]): 405 nM

Sequence: HLKCKVRMEK
- Kd (HLA-A*03:01; source organism: Dengue virus 4 Philippines/H241/1956): 55.4 nM

Sequence: DIVNEHDIK
- Kd (HLA-A*31:01; [2]): ≥ 77900 nM
- Kd (HLA-A*03:01; [2]): ≥ 63200 nM
- Kd (HLA-A*68:01; [2]): 3670 nM
- Kd (HLA-A*11:01; [2]): ≥ 77900 nM
- Kd (HLA-A*33:01; [2]): ≥ 77700 nM

Sequence: GMMVLKIVR
- Kd (HLA-A*31:01; [3]): 11.3 nM

Sequence: MGITAEWLWR
- Kd (HLA-A*31:01; [6]): 88.5 nM

Sequence: MLLQFAYSNR
- Kd (HLA-A*31:01; [4]): 22.5 nM
- Kd (HLA-A*03:01; [4]): 164 nM
- Kd (HLA-A*68:01; [4]): 50.8 nM
- Kd (HLA-A*11:01; [4]): 860 nM
- Kd (HLA-A*33:01; [4]): 114 nM

Sequence: KTQVGVGVQK
- Kd (HLA-A*11:01; [6]): 59.5 nM

Sequence: LILSNKLLY
- Kd (HLA-A*31:01; [2]): 5630 nM
- Kd (HLA-A*03:01; [2]): 13.7 nM
- Kd (HLA-A*68:01; [2]): 5470 nM
- Kd (HLA-A*11:01; [2]): 192 nM
- Kd (HLA-A*33:01; [2]): 13200 nM

Sequence: AAGIIILMEY
- Kd (HLA-A*31:01; [2]): 1030 nM
- Kd (HLA-A*03:01; [2]): 6280 nM
- Kd (HLA-A*68:01; [2]): 1200 nM
- Kd (HLA-A*11:01; [2]): 1340 nM
- Kd (HLA-A*33:01; [2]): 7170 nM

Sequence: PLLCNLNKSH
- Kd (HLA-A*31:01; [7]): ≥ 70000 nM
- Kd (HLA-A*03:01; [7]): ≥ 70000 nM
- Kd (HLA-A*68:01; [7]): ≥ 45800 nM
- Kd (HLA-A*11:01; [7]): ≥ 69700 nM
- Kd (HLA-A*33:01; [7]): ≥ 70000 nM

Sequence: AIEPSGNNY
- Kd (HLA-A*31:01; [2]): ≥ 77900 nM
- Kd (HLA-A*03:01; [2]): ≥ 59600 nM
- Kd (HLA-A*68:01; [2]): ≥ 77700 nM
- Kd (HLA-A*11:01; [2]): 5790 nM
- Kd (HLA-A*33:01; [2]): ≥ 77700 nM

Sequence: AARILSEKR
- Kd (HLA-A*31:01; [2]): 36.3 nM
- Kd (HLA-A*03:01; [2]): ≥ 78000 nM
- Kd (HLA-A*68:01; [2]): 852 nM
- Kd (HLA-A*11:01; [2]): 6080 nM
- Kd (HLA-A*33:01; [2]): 1070 nM

Sequence: ISEKETLNEY
- Kd (HLA-A*31:01; [2]): ≥ 45800 nM
- Kd (HLA-A*03:01; [2]): ≥ 70100 nM
- Kd (HLA-A*68:01; [2]): ≥ 35000 nM
- Kd (HLA-A*11:01; [2]): 3000 nM
- Kd (HLA-A*33:01; [2]): ≥ 55600 nM

Sequence: TIDKSSPLY
- Kd (HLA-A*31:01; [2]): ≥ 53700 nM
- Kd (HLA-A*03:01; [2]): 65.2 nM
- Kd (HLA-A*68:01; [2]): 206 nM
- Kd (HLA-A*11:01; [2]): 81.7 nM
- Kd (HLA-A*33:01; [2]): ≥ 77700 nM

Sequence: TMHANYIFWR
- Kd (HLA-A*31:01; [4]): 11.3 nM
- Kd (HLA-A*03:01; [4]): 1260 nM
- Kd (HLA-A*68:01; [4]): 35.5 nM
- Kd (HLA-A*11:01; [4]): 125 nM
- Kd (HLA-A*33:01; [4]): 121 nM

Sequence: YLALLAAFK
- Kd (HLA-A*03:01; [3]): 1.32 nM
- Kd (HLA-A*68:01; [3]): 18.4 nM

Sequence: TIQRFSSLRR
- Kd (HLA-A*31:01; [2]): 1.56 nM
- Kd (HLA-A*03:01; [2]): 78.6 nM
- Kd (HLA-A*68:01; [2]): 7.24 nM
- Kd (HLA-A*11:01; [2]): 1.88 nM
- Kd (HLA-A*33:01; [2]): 9.81 nM

Sequence: SSFDYCGVNH
- Kd (HLA-A*31:01; [8]): 1970 nM
- Kd (HLA-A*03:01; [8]): 8190 nM
- Kd (HLA-A*68:01; [8]): 492 nM
- Kd (HLA-A*11:01; [8]): 4840 nM
- Kd (HLA-A*33:01; [8]): 6430 nM

Sequence: MTHRRPTIEK
- Kd (HLA-A*03:01; [6]): 5.64 nM
- Kd (HLA-A*68:01; [6]): 196 nM
- Kd (HLA-A*11:01; [6]): 117 nM

Sequence: FSPENKAFK
- Kd (HLA-A*31:01; [2]): 6710 nM
- Kd (HLA-A*03:01; [2]): 6250 nM
- Kd (HLA-A*68:01; [2]): 133 nM
- Kd (HLA-A*11:01; [2]): 5020 nM
- Kd (HLA-A*33:01; [2]): 3920 nM

Sequence: RIGTAATKRY
- Kd (HLA-A*31:01; [2]): ≥ 70000 nM
- Kd (HLA-A*03:01; [2]): 1250 nM
- Kd (HLA-A*68:01; [2]): ≥ 59600 nM
- Kd (HLA-A*11:01; [2]): ≥ 69800 nM
- Kd (HLA-A*33:01; [2]): ≥ 70000 nM

Sequence: YSKKFQESFY
- Kd (HLA-A*31:01; [2]): 14400 nM
- Kd (HLA-A*03:01; [2]): 2720 nM
- Kd (HLA-A*68:01; [2]): 1780 nM
- Kd (HLA-A*11:01; [2]): 7410 nM
- Kd (HLA-A*33:01; [2]): ≥ 70000 nM

Sequence: IFYFISIYSR
- Kd (HLA-A*31:01; [2]): 2.39 nM
- Kd (HLA-A*03:01; [2]): 175 nM
- Kd (HLA-A*68:01; [2]): 38.9 nM
- Kd (HLA-A*11:01; [2]): 4180 nM
- Kd (HLA-A*33:01; [2]): 76.2 nM

Sequence: TFVNFNSVK
- Kd (HLA-A*31:01; [2]): 103 nM
- Kd (HLA-A*03:01; [2]): 784 nM
- Kd (HLA-A*68:01; [2]): 12.5 nM
- Kd (HLA-A*11:01; [2]): 21.4 nM
- Kd (HLA-A*33:01; [2]): 197 nM

Sequence: ASLPTTIAK
- Kd (HLA-A*31:01; [4]): 118 nM
- Kd (HLA-A*68:01; [4]): 2030 nM
- Kd (HLA-A*33:01; [4]): ≥ 40300 nM

Sequence: KSSQRDTILK
- Kd (HLA-A*11:01; source organism: Mammarenavirus brazilense): 33.2 nM

Sequence: RLTDTEYRAR
- Kd (HLA-A*31:01; [2]): 1.33 nM
- Kd (HLA-A*03:01; [2]): 667 nM
- Kd (HLA-A*68:01; [2]): 822 nM
- Kd (HLA-A*11:01; [2]): 794 nM
- Kd (HLA-A*33:01; [2]): 469 nM

Sequence: SIILANERY
- Kd (HLA-A*31:01; [2]): 19900 nM
- Kd (HLA-A*03:01; [2]): ≥ 78000 nM
- Kd (HLA-A*68:01; [2]): 607 nM
- Kd (HLA-A*11:01; [2]): 233 nM
- Kd (HLA-A*33:01; [2]): ≥ 77700 nM

Sequence: KAIKILIGFR
- Kd (HLA-A*31:01; source organism: Dengue virus 4 Dominica/814669/1981): 8.62 nM

Sequence: HAIGTSITQK
- Kd (HLA-A*68:01; [1]): 34.5 nM

Sequence: KSEFQIYKK
- Kd (HLA-A*11:01; [3]): 244 nM

Sequence: SAKLQWFVER
- Kd (HLA-A*31:01; [6]): 34.7 nM
- Kd (HLA-A*33:01; [6]): 83 nM

Sequence: TILIKVEYK
- Kd (HLA-A*11:01; [6]): 1250 nM

Sequence: PFLALGFFLR
- Kd (HLA-A*31:01; [6]): 186 nM
- Kd (HLA-A*33:01; [6]): 286 nM

Reference: the Immune Epitope Database (IEDB)
